The DeepSol protein solubility set

Assay: soluble on expression in E. coli; label from the status in PepcDB or PDB records

| Sequence | soluble on expression in E. coli |
| --- | --- |
| GPMGMQSIREQSCRVVTCKTCKYTHFKPKETCVSENHDFHWHNGVKRFFKCPCGNRTISLDRLPKKHCSTCGLFKWERVGMLKEKTGPKLGG | soluble |
| MGSDKIHHHHHHMVKDKNDVGPKTVAILGAGGKMGARITRKIHDSAHHLAAIEIAPEGRDRLQGMGIPLTDGDGWIDEADVVVLALPDNIIEKVAEDIVPRVRPGTIVLILDAAAPYAGVMPERADITYFIGHPCHPPLFNDETDPAARTDYHGGIAKQAIVCALMQGPEEHYAIGADICETMWSPVTRTHRVTTEQLAILEPGLSEMVAMPFVETMVHAVDECADRYGIDRQAALDFMIGHLNVEIAMWFGYSPKVPSDAALRLMEFAKDIVVKEDWREALNPAKVKQAAELIAGK | not soluble |
| MKNIIIIGANGFTGRQILNDLSSKAQYKVTGCSLHPDILPKNGGNYHFITTDIRDEAVVKQLFKDVQPDVVINCSALSVPDYCETHHEEAWLTNVTAVEQLAHLCESYKSRFIHLSTDFVFDGKIDEKSGQLYTEKSLPAPVNYYGFTKWKGEEKVTEICSNYAIARVEIVYGKALPGQHGNIVQLVMNRLNAGQEIRVVSDQWRTPTYVGDVSAGVQHLVENAANGIFHICGEECLTIAEIAFQVADYMKLDRSLVHPATTEEMQEATPRPRFSGMSIAKARTILGYQPRKLKDILMEWKH | not soluble |
| MGSDKIHHHHHHKVRPTKTTLKKDTQLYGVTIDDSWYDRTKMTDIIAALKAMPVKPTVRIVMSKDSSPKSYVNLFRKLHKVAYVMACPVDSYEMNLYKDVNSYRKRFAVAYHYLSSYTDIWEIGNEVNGTDWIKQKNTLITQKLKAVCQTISSAGGKTALTFYYENPKYDHDMIAWIKKNIPVMLRSRVDYGFISYYEDDNEGYQPDWQSVFNQLQNLFPNSNVGMGECGNTADNATENSKIAMAKRYYTMPKYTKHYVGGYFWWEWVQDCVPHENNPIYDAINKSLKK | not soluble |
| MSEMPAREQMISAYSELVGLDPVSLGDGVAEVRLPMAAHLRNRGGVMHGGALFSLMDVTMGLACSSSHGFDRQSVTLECKINYIRAVADGEVRCVARVLHAGRRSLVVEAEVRQGDKLVAKGQGTFAQL | soluble |
| SLNGRPTTPNGAAGKWGDYRKCDTPKRTVDHMLNHIADTHSDIDFIIWTGDLPPHDVWNQTKEENLKVLKETVTQMTEKFPGIPIFPALGNHESAPVNSFPPPYVQQVDSSIAWLYDELDVQWRRWLPASVSHTVRRGAFYSVLVRPGYRIISLNMNYCNNKNWWLLLNSTDPATELQWFIYELQSAEFAGEKVHVIGHIPPGHSDCLKVWSRNYYKIVSRFESTITAQFFGHTHFDEFEVFYDPHDLSRATSIAYIGPSVTPYNDLNPGYRIYYIDGDHDETTRLVVDHESWIMNLKEANLYDYPIWYKLYSTRAAYGMKGLRPADWDQLINNMTDSKELFDLYYKHYWKASPVKPECDYECRKRILCDAKSGRSHDRKYFCEEVEAKIDESNKGWKDWLFS | not soluble |
| TVVNDPSCESVVTTPQHSLRDANSPAGLLSIAEETLAEFLSKATGTAVDWVQMPGMKPGPDSVGIFAISQRCNGVAARACGLVSLEPMKIAEILKDRPSWFRDCRSLEVFTMFPAGNGGTIELVYMQTYAPTTLAPARDFWTLRYTTSLDNGSFVVCERSLSGSGAGPNAASASQFVRAEMLSSGYLIRPCDGGGSIIHIVDHLNLEAWSVPDVLRPLYESSKVVAQKMTISALRYIRQLAQESNGEVVYGLGRQPAVLRTFSQRLSRGFNDAVNGFGDDGWSTMHCDGAEDIIVAINSTKHLTNISNSV | soluble |
| MSLRVLVMVNDFPNKDNSYTANIFVKEQVKALSEFVEEINVIVPIPRGIELYRKTSYRDYAIGENVHVHFVKYINPLFPIAYSKLRREWIWLEHRALTNFIKKKDIKFDIIHAHYTWPSGAVGVKLKEEYKVPLVITEHTSQTFNRYITTRDPLAREIWQKADIIVRVRKGDIDLFSRVGITPSKIRYIPNGFDGNKFYPIPQEIARRKLNLVEYEKIIINVANMYSRVKGHEYLLRAFSKVAENTSDAFLILVGSGKLLSHLKKLADNLYLGHRVLFAGSKPHDEIPLWMNAADLFVLPSLRESFGVVQIEAMACGVPVVATRNGGSEEIIISEDYGLLCEPANPKELAEKILIALEKEWDREKIRKYAEQFTWENIAKKTLEVYRGVLKEGHHHHHH | soluble |
| MGHHHHHHSHMVSTATHSLSRLHTMLTGLRNAPSEKLEQILRTCSRDPTQAIANRLKEMFEIYSQHFQPDEDFSNCAKEIASKHFRFAEMLYYKVLESVIEQEQKRLGDMDLSGILEQDAFHRSLLACCLEVVTFSYKPPGNFPFITEIFDVPLYHFYKVIEVFIRAEDGLCREVVKHLNQIEEQILDHLAWKPES | not soluble |
| NPQTSVSNTGKEADATKNQTSKADQVSAPYEGTGKTSKSLYGGQTELEKNIQTLQPSSIIGTDERTRISSTTSFPYRATVQLSIKYPNTSSTYGCTGFLVNPNTVVTAGHCVYSQDHGWASTITAAPGRNGSSYPYGTYSGTMFYSVKGWTESKDTNYDYGAIKLNGSPGNTVGWYGYRTTNSSSPVGLSSSVTGFPCDKTFGTMWSDTKPIRSAETYKLTYTTDTYGCQSGSPVYRNYSDTGQTAIAIHTNGGSSYNLGTRVTNDVFNNIQYWANQ | not soluble |
| MNHTLQFPKAPEHLLQALNEVIPKCKLMAQQLPETAISLWLIPPVFPTERLDDDIIRRIWSDTPYWIFCWASGLAMAQWLLAEPHHVKDKVVLDFGAGSGVVAIAAKMAGAKRVICCDIDETSLNACRENALLNNVELEYLNDLYLSESVDILLAADVLYDQSNRFFLDEFLKFAPEVWVADSRVKNFSHPGYIKIDERSATTWPDLDEAKEFRNVSFYKTLEHHHHHH | not soluble |
| FAKLVRPPVQIYGIEGRYATALYSAASKQNKLEQVEKELLRVGQILKEPKMAASLLNPYVKRSVKVKSLSDMTAKEKFSPLTSNLINLLAENGRLTNTPAVISAFSTMMSVHRGEVPCTVTTASALDETTLTELKTVLKSFLSKGQVLKLEVKIDPSIMGGMIVRIGEKYVDMSAKTKIQKLSRAMREIL | soluble |
| MSLTNEFEILKPGKLLLASANLLDPNFKRTVLLMCEHNEEGSIGFILNKPMEFKVCEAISGFDEIDEPLHMGGPVQVDTVHVLHTRGDVIDGAVEVIPGLFWGGDKEQLSYLINTGVIKASEVRFFLGYAGWSAGQLEAEFEEGSWYTADASSEQVFTDEYERMWSRSVRSKGGEYCYVANSPELPGMNEGHHHHHH | soluble |
| MNMPHKFNQYNKSIPVNKHVIELLENDPSLLPSDIAKQLSISEVEVVKSLPKEMVTMVSGLKTQEILEGLVGFGDVTTIVHSFGSIFEVKAPFPKGKIAHGYYNLMGREGQLHGHLKLDLIQDIALISKPFRGTESHYFGFFNHDGHSVFKIYLGRDKKRQLIPEQVEAFNVLKQEYKLEHHHHHH | soluble |
| MVEVPSFRSNEHFPQLCDKVTVKWDKKRGRFVEAIEDIPIGTVVCVETGITVNVDPQNCYRCLKITENASFAYCKNCEEFYEPDEIACGEFDELGIFKLAAHLVFSYPFADIASLVQSSDPEPPSCAPKALSTQDIEAIFQLTPFPEIGEAFKAPAIQNAIKRIVESLETDENWGRLDQISRTMTFTKALRIMAERSAKNAHTIYSIEQIESQEDNLPMATGLFPISSIFNHSCTPNISGFFVRNTFIFVSQGVRAREELLDSYGVTYHQHTFEQRTNFLASVSGFICHCESCFKMKSLKVLEKPKKYPETIATNASCFTDITSYTENIPRGSKELENLIIAFARRPDSETYTELIFQFWKKFVENAKFRGITYDPYLVRPYVEMTILAWNKEVGCENEEKMSLLIVTHRLLRNCYVDLHPLSELVVKLVNVVANQNADEINRTLEKLKLRARMLWKYSEQSEDL | not soluble |
| MTTNKDHFMAKIQLVAQANLPTEYGIFKMVGFEFPDTKKEHVALVMGDISNADEPVLARIHSECLTGDALHSLKCDCGFQLATALKQIQEEGRGVLIYHREEGRGIGLINKIRAYSLQDKGMDTIEANLALGFKADERNFEVCADMFELLGVKKVRLMTNNPEKVETMKKAGINVVERVPLNVGENRYNTKYLDTKAKKMGHYIVHNNDEQHLMTCPHCQEEIILEHHHHHH | soluble |
| MLNYLFENNCLLCGKEVSPLRSLCENCEEKVLKNGPSFYREVHRKYELFVYSDYTDEIERIIRLYKYHGEVSLSGTLVKLFLKLYSYFPREANLITWVPSSLDSLEDRGFDHMRLLAKRISKELGIPFDAVLENVSEGRQVEKSKEERKRTGRFICKKDPPQNVILIDDVLTTGTSVRDCVETLFRNGVSKVFVYVLAKTRR | not soluble |
| GQSITDYNYKKPLHNDYQILDKSKIFGSNSGSFVMYSMKKDKYYIYNEKESRKRYSPNSTYKIYLAMFGLDRHIINDENSRMSWNHKHYPFDAWNKEQDLNTAMQNSVNWYFERISDQIPKNYTATQLKQLNYGNKNLGSYKSYWMEDSLKISNLEQVIVFKNMMEQNNHFSKKAKNQLSSSLLIKKNEKYELYGKTGTGIVNGKYNNGWFVGYVITNHDKYYFATHLSDGKPSGKNAELISEKILKEMGVLNGQ | soluble |
| GPGSMSCEVTMVGRDRDYLHDVQYGSRTFRLADRRIRAPSGLTVRAVDAEPIKDDVGVDAVLSCVPATCLENDGAHTPPMVRCAQNHADAPMLLFTRGFTREGLTPLEQLGRVSQDLPSKLVVVSGPLFAREWAVTSAAACDGGDANRNSGVTLSFALGGKADVELSRSLQSLTERLWRRESVTWLDGPLAAEILSLVNGCVPLCSMGAGLVSSEYPGSVSATMSYLQHATSATEQLVNGVLGLPLGSPLPSCAVATIAMACTNHAAREFVFGRRLDYHFRHRDAIRAVFPAGSHEALDSTVSGLHMLLRRHAMSSPFYEVLMDTFLTLMRASVAGRELVRLGHYEYRHKLRDEDTVLLRHTEVVDEAMLSGDHQRFDDARRALQMAFGDSSCGAPTMPPL | not soluble |
| SNEGKELSTFCRKFEVPLRKALEKAGRLVDDPGRPRLLLTFISGRRVFVGVASASNSALWPMGIPRLKFPREAPSRSTLKLEEAWHQFIPREQWEQRLGDDMTGVDLGASPGGWTYQLVRRGMLVTAIDNGPMAESLMDTGLVQHLMADGFTWQPKQPVDWMVCDIVEKPARTTSLIETWLGEGLCREAVVNLKLPMKQRYAEVRRLLDRMEATFKARKIRVSIACKQLYHDREEVTCHLRRLDLK | not soluble |
| MYTFKKGDADYQVMLNENFKEITDSFEDGLFVRKNSKILDLNDAILPGIYSIPATGVDNKPLPNSGSLFVCKDPGGVRQLFQTERTIFIRQLGGVPSSWTDWKKVAFEKEQPFEAWYSPGTNHAGFKNKARYNLGPEFSNIGQRLGLPMKSEPLEWNSGRWQAKVLRDCKLNISGTVKYHVGSSRGVLYAYTHIDKGLDEGVGDLGIGSAVGAVGGLDYKNVAAFDLNVTLKKGEYLAFRLELAADKQLDYTQLSSMHITELV | not soluble |
| MGSEQNDSTSFTQSQASEPKLCVKGCGFFGSPSNMDLCSKCYRGICAEEAQTAVAKAAVEKSFKPSPPRSLFIAEPPAVVVEPKPEKAAVVVVSAEPSSSAVPEANEPSRPARTNRCLCCNKKVGIMGFKCKCGSTFCGEHRYPETHDCSFDFKEVGRGEIAKANPVVKADKIQRF | soluble |
| MGQFYCLHCDRYFSNVSVRDDHFKTKKHKKRVNMMMGQAPHSQLDADLAGGMGMPDNGPKLMSNLVFTELRKPETEDLPGMGQFNCLLCHRNFSNASVMDYHFKTKKHKKRVKKIERPAPHSQLDADLAGGMGMPDNGPKLMSA | not soluble |
